The target in test [1] is CD28Ig fusion protein (human) (UniProt P10747). As to the kind of experiment: plate binding assay, ^125I-B7Ig (24 nM) on immobilized CD28Ig.
For test [2] the target is unchanged. Briefly: competition of ^125I-B7Ig binding to immobilized CD28Ig by unlabeled B7Ig.
Test [3] has as its target CD28 receptor (human) (UniProt P10747). Briefly: cell-based or functional assay.
Test [4] concerns the target B7 antigen (human) (UniProt P33681). As to the kind of experiment: flow cytometry, direct staining of T51 cells (positive for CD28 adhesion).
For test [5] the target is unchanged. Briefly: flow cytometry, direct staining of 5E1 cells (positive for CD28 adhesion). A general note: In flow cytometry, cells or beads pass a laser one at a time.
Test [6] shares this target. Briefly: flow cytometry, HL60 cells preincubated with unlabeled BB-1 (negative for CD28 adhesion).
For test [7] the target is unchanged. As to the kind of experiment: flow cytometry, direct staining of Daudi cells (positive for CD28 adhesion).
For test [8] the target is unchanged. As to the kind of experiment: flow cytometry, direct staining of Namalwa cells (negative for CD28 adhesion; presence of B7 not shown).
The target in test [9] is B7Ig fusion protein (human) (UniProt P33681). Briefly: competition of ^125I-B7Ig binding to immobilized CD28Ig by the unlabeled competitor.
Test [10] has as its target B7 antigen (human) (UniProt P33681). Briefly: flow cytometry, direct staining of 1A2 cells (negative for CD28 adhesion; presence of B7 not shown).
For test [11] the target is unchanged. Briefly: flow cytometry, T51 cells; -cold minus +cold.
Test [12] has the same target. Briefly: flow cytometry, 1A2 cells preincubated with unlabeled BB-1 (negative for CD28 adhesion).
The target is the same in test [13]. As to the kind of experiment: flow cytometry, T51 cells preincubated with unlabeled BB-1.
For test [14] the target is unchanged. As to the kind of experiment: flow cytometry, direct staining of HL60 cells (negative for CD28 adhesion; presence of B7 not shown).
The target is the same in test [15]. As to the kind of experiment: flow cytometry, direct staining of Jijoye cells (positive for CD28 adhesion).
Test [16] has the same target. Briefly: flow cytometry, Raji cells; -cold minus +cold.
For test [17] the target is unchanged. Briefly: flow cytometry, Daudi cells preincubated with unlabeled BB-1.
For test [18] the target is unchanged. Briefly: flow cytometry, direct staining of THP-1 cells (negative for CD28 adhesion; presence of B7 not shown).
The target is the same in test [19]. As to the kind of experiment: cell-based or functional assay.
Test [20] shares this target. Briefly: flow cytometry, Daudi cells; -cold minus +cold.
Test [21] has the same target. Briefly: flow cytometry, Raji cells preincubated with unlabeled BB-1.
Test [22] has the same target. Briefly: flow cytometry, Namalwa cells (negative for CD28 adhesion); -cold minus +cold.
The target is the same in test [23]. As to the kind of experiment: flow cytometry, Jijoye cells preincubated with unlabeled BB-1.
For test [24] the target is unchanged. As to the kind of experiment: flow cytometry, Jijoye cells; -cold minus +cold.
For test [25] the target is unchanged. Briefly: flow cytometry, direct staining of Raji cells (positive for CD28 adhesion).
For test [26] the target is unchanged. Briefly: flow cytometry, direct staining of HSB2 cells (negative for CD28 adhesion; presence of B7 not shown).
The target is the same in test [27]. Briefly: flow cytometry, CEM cells preincubated with unlabeled BB-1 (negative for CD28 adhesion).
Test [28] shares this target. Briefly: flow cytometry, 5E1 cells preincubated with unlabeled BB-1.
The target is the same in test [29]. As to the kind of experiment: flow cytometry, 5E1 cells; -cold minus +cold.
Test [30] shares this target. As to the kind of experiment: flow cytometry, HSB2 cells preincubated with unlabeled BB-1 (negative for CD28 adhesion).
Test [31] has the same target. As to the kind of experiment: flow cytometry, THP-1 cells preincubated with unlabeled BB-1 (negative for CD28 adhesion).
The target of test [32] is CD28 receptor (human) (UniProt P10747). Briefly: flow cytometry, FITC-conjugated mAb 9.3 on phytohemagglutinin-stimulated T cells.
The target in test [33] is CD28Ig fusion protein (human) (UniProt P10747). Briefly: competition of ^125I-B7Ig binding to immobilized CD28Ig by the unlabeled competitor.
Test [34] deals with CD28 receptor (human) (UniProt P10747). As to the kind of experiment: flow cytometry, FITC-conjugated mAb 9.3 on CD28^+ CHO cells.
Test [35] addresses CD28Ig fusion protein (human) (UniProt P10747). Briefly: competition of ^125I-B7Ig binding to immobilized CD28Ig.

Broadly, the IC50 is the concentration needed to halve the response being measured. As to “B7Ig fusion protein (from UniProt P33681 35-215; P01857 99-330) (Fc fusion)”, the radioactivity bound without competitor in test [1] is 7800 cpm. In addition, the concentration for half-maximal inhibition (IC50) in test [2] is 280 nM. In [3], this substance had a [^3H]-T incorporation of PBL, B7Ig (immob.), +Anti-CD3, Exp. 1 of 174000 cpm and a [^3H]-T incorporation of PBL, B7Ig (immob.), -Anti-CD3, Exp. 1 of 100 cpm.
For mAb BB-1 (anti-B7) (antibody), the mean fluorescence, FITC-BB-1 -COLD came out at 16.4 linear units in [4]; 13 linear units in test [5]; 6.4 linear units in [7]; 3.8 linear units in test [8]; 4.5 linear units in test [10]; 3.1 linear units in test [14]. The mean fluorescence, FITC-BB-1 -COLD in test [15] came out at 17.8 linear units; in [18], 3.1 linear units; in test [25], 7.1 linear units; in [26], 2.3 linear units. Besides, the mean fluorescence, FITC-BB-1 +COLD in [6] is 3.1 linear units; in [12], 4.3 linear units; in [13] it was 3 linear units; in test [17], 2.8 linear units; in test [21], 2.8 linear units; in test [23] it was 2.8 linear units. Moreover, the mean fluorescence, FITC-BB-1 +COLD in [27] was determined as 1.9 linear units; in [28], 2.4 linear units; in [30], 2.3 linear units; in test [31], 3 linear units. In [9], this substance showed an IC50 of 140 nM. In addition, the SPECIFIC BINDING (mean fluorescence) in [11] is 13.4 linear units; in test [16] it was 4.3 linear units; in test [20], 3.6 linear units; in test [22], 1.6 linear units; in test [24], 15 linear units; in test [29] it was 10.6 linear units. This substance came in with a [^3H]-T incorporation of PHA blasts, stimulation B7^+ CHO, mAb BB-1 in test [19] of 98300 cpm. The adhesion of Jijoye cells to CD28^+ CHO cells, blocking by mAb in test [19] came to 60%.
As for mAb 9.3 (Fab fragments), the [^3H]-T incorporation of PHA blasts, stimulation B7^+ CHO, mAb 9.3 Fab in test [3] was 132000 cpm.
For “Monoclonal antibody (mAb) 9.3 (anti-CD28)”, the mean channel (linear fluorescence units) (linear fluorescence units) in [32] stood at 11.3. The half-maximal inhibitory concentration (IC50) in test [33] was determined as 4.3 nM. In [3], this substance gave a [^3H]-T incorporation of PBL, mAb 9.3 (immob.), +Anti-CD3, Exp. 1 of 137000 cpm; a [^3H]-T incorporation of PBL, mAb 9.3 (immob.), -Anti-CD3, Exp. 1 of 100 cpm; a [^3H]-T incorporation of PBL, mAb 9.3 (soln.), +Anti-CD3, Exp. 1 of 156000 cpm; a [^3H]-T incorporation of PBL, mAb 9.3 (soln.), +Anti-CD3, Exp. 2 of 75800 cpm. In test [3], this substance displayed a [^3H]-T incorporation of PBL, mAb 9.3 (soln.), -Anti-CD3, Exp. 1 of 300 cpm; a [^3H]-T incorporation of PBL, mAb 9.3 (soln.), -Anti-CD3, Exp. 2 of 400 cpm; an adhesion of B7 transfected COS cells to CD28^+ CHO cells without EDTA, blocking by mAb 9.3 of 40%; an adhesion of T51 cells to CD28^+ CHO cells, reduction by mAb 9.3 with EDTA of 93%. In test [3], this substance returned an adhesion of T51 cells to CD28^+ CHO cells, reduction by mAb 9.3 without EDTA of 62% and a half-maximal inhibition of CD28-mediated adhesion of PM lymphoblastoid cells to CD28^+ CHO cells of 10 nM. Moreover, the mean channel (linear fluorescence units) (linear fluorescence units) in test [34] was determined as 116. Further, in test [35], the fold more effective as a competitor than B7Ig is 65 fold.

Values taken from patent US20030219446A1.
